From patent EP4806514A2 (Lepu Biopharma Co., Ltd., dated 2025)

T1: hCDH17-his (full length extracellular domain of human CDH17, Q23-M787, his tag at the C-terminal) (human, UniProt Q12864 23-787)
T1 construct: Limits of the construct (UniProt Q12864, Q23-M787, C-terminal his tag); also called human CDH17-his protein; human CDH17 protein
T1 sequence: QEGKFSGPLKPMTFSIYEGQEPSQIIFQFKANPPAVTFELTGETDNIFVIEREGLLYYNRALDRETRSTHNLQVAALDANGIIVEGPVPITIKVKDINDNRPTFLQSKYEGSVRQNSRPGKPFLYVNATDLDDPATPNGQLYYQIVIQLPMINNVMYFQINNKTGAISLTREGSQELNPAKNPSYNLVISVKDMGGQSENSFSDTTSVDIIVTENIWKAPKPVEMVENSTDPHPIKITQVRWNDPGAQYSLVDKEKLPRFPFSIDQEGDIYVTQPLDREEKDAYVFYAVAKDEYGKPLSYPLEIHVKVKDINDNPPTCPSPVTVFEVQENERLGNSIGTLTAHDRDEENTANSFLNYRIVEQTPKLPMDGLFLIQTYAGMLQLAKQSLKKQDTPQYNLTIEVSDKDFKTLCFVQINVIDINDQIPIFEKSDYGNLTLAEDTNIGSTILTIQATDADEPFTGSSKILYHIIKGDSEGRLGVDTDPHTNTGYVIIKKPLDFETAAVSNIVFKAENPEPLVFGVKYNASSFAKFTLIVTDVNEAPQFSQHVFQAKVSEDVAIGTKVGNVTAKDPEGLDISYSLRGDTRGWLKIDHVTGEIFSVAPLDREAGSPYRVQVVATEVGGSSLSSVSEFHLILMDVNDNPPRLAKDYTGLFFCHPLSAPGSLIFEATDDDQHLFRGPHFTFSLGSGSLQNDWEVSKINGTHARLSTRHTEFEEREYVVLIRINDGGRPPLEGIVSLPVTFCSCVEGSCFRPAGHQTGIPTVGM

T2: human CDH17, full length, expressed on cells (HEK293-hCDH17); AsPC-1, HCT-8, AGS, LoVo, KATO III, HT-29 tumor … (human, UniProt Q12864 23-832)
T2 construct: also called human CDH17 expressed on tumor cells
T2 sequence: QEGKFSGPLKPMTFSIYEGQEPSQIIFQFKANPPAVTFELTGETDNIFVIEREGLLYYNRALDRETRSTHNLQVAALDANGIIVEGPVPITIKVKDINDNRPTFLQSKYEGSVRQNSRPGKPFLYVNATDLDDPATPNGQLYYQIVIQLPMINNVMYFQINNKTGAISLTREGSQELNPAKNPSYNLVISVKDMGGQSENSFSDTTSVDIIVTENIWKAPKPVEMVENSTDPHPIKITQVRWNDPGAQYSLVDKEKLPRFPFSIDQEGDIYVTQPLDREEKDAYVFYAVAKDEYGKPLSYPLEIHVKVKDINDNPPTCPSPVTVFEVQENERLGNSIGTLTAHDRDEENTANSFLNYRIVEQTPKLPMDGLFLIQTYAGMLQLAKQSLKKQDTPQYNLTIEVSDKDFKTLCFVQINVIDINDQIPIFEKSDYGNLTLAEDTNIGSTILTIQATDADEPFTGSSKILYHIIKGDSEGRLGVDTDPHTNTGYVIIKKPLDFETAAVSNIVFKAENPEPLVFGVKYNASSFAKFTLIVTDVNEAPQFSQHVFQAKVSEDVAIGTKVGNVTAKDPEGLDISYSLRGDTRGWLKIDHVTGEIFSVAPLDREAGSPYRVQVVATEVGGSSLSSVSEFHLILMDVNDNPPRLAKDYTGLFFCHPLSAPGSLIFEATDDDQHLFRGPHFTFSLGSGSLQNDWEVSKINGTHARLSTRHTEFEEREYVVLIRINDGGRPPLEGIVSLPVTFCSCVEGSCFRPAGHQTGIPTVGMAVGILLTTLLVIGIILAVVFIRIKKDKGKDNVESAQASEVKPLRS


How the values were obtained:
[1] = target: T1, hCDH17-his (full length extracellular …); assay: SPR (Biacore 8K), antibody captured on Protein A chip, hCDH17-his injected
[2] = target: T2, human CDH17, full length, expressed on …; assay: flow cytometry, AGS cells
[3] = target: T2, human CDH17, full length, expressed on …; assay: flow cytometry, AsPC-1 cells
[4] = target: T2, human CDH17, full length, expressed on …; assay: flow cytometry, AsPC-1, AGS, KATO III and HT-29 cells

Binder | binding result [1] | binding result [2] | binding result [3] | binding result [4]
152A1D12-z13 (antibody, V domains shown, Humanized, human IgG1 constant region; also called 152A1D12 HU-VH1-3 / HU-VL1-0) VH: QVQLVQSGAEVKKPGASVKVSCKASGYTFTDYNMHWVKQAPGQRLEWIGYIYRNNGYNGYNQKFKNKATLTVDTSASTAYMELSSLRSEDTAVYYCARNYWRGAMDYWGQGTTVTVSS VL: EIVLTQSPATLSLSPGERATLSCSASSSISYMHWYQQKPGKAPKLLIYDTSKLASGVPSRFSGSGSGTDFTLTISSLQPEDFATYYCHQRSSYPWTFGGGTKVEIK | binds | binds |  | 
152A1D12-z18 (antibody, V domains shown, Humanized, human IgG1 constant region; also called 152A1D12 HU-VH1-3 / HU-VL2-1) VH: QVQLVQSGAEVKKPGASVKVSCKASGYTFTDYNMHWVKQAPGQRLEWIGYIYRNNGYNGYNQKFKNKATLTVDTSASTAYMELSSLRSEDTAVYYCARNYWRGAMDYWGQGTTVTVSS VL: EIVLTQSPATLSLSPGERATLSCSASSSISYMHWYQQKPGQAPRLWIYDTSKLASGVPARFSGSGSGTDFTLTISSLEPEDFAVYYCHQRSSYPWTFGGGTKVEIK | binds | binds |  | 
29H8D3-z3 (antibody, V domains shown, Humanized variable regions fused to human IgG1 constant region) VH: QVQLVQSGAEVKKPGASVKVSCKASGYTFTDHTIHWVRQAPGQGLEWMGYIYPRDGYTKYNEKFKDRVTMTTDTSTSTAYMELRSLRSDDTAVYYCARFYYGYWYFDVWGQGTTVTVSS VL: DIVMTQSPLSLPVTPGEPASISCRSSKSLLRSNGNTYLYWFLQKPGQSPQVLIYRMSNLASGVPDRFSGSGSGTDFTLKISRVEAEDVGVYYCMQHLEYPFTFGQGTKLEIK | binds |  | binds | 
29H8D3-z6 (antibody, V domains shown, Humanized, human IgG1 constant region) VH: QVQLVQSGAEVKKPGASVKVSCKASGYTFTDHTIHWVRQAPGQGLEWIGYIYPRDGYTKYNEKFKDRATMTTDTSTSTAYMELRSLRSDDTAVYYCARFYYGYWYFDVWGQGTTVTVSS VL: DIVMTQSPLSLPVTPGEPASISCRSSKSLLRSNGNTYLYWFLQKPGQSPQVLIYRMSNLASGVPDRFSGSGSGTDFTLKISRVEAEDVGVYYCMQHLEYPFTFGQGTKLEIK | binds |  | binds | 
29H8D3-z9 (antibody, V domains shown, Humanized, human IgG1 constant region) VH: QVQLVQSGAEVKKPGASVKVSCKASGYTFTDHTIHWMRQAPGQGLEWIGYIYPRDGYTKYNEKFKDRATMTTDTSTSTAYMELRSLRSDDTAVYYCARFYYGYWYFDVWGQGTTVTVSS VL: DIVMTQSPLSLPVTPGEPASISCRSSKSLLRSNGNTYLYWFLQKPGQSPQVLIYRMSNLASGVPDRFSGSGSGTDFTLKISRVEAEDVGVYYCMQHLEYPFTFGQGTKLEIK | binds |  | binds | 
155B11C6-z3 (antibody, V domains shown, Humanized, human IgG1 constant region; also called 155B11C6 HU-VH1-0 / HU-VL1-2) VH: QVQLVQSGAEVKKPGASVKVSCKASGYTFTSYTMHWVRQAPGQGLEWMGYIDPKSDYNYYNQKFKDRVTMTRDTSISTAYMELSRLRSDDTAVYYCARGFFKGYFDVWGQGTTVTVSS VL: EIVLTQSPGTLSLSPGERATLSCSVSSSISSSNLHWYQQKPGQAPRPWIYGTSNLASGVPDRFSGSGSGTDYTLTISRLEPEDFAVYYCQQWTSYPFTFGQGTKLEIK | binds | binds |  | 

Next, values leading:

binding result [1] | binding result [2] | binding result [3] | binding result [4] | Binder
binds | binds |  |  | 155B11C6-z4 (antibody, V domains shown, Humanized, human IgG1 constant region; also called 155B11C6 HU-VH1-0 / HU-VL1-3) VH: QVQLVQSGAEVKKPGASVKVSCKASGYTFTSYTMHWVRQAPGQGLEWMGYIDPKSDYNYYNQKFKDRVTMTRDTSISTAYMELSRLRSDDTAVYYCARGFFKGYFDVWGQGTTVTVSS VL: EIVLTQSPGTLSLSPGERATLSCSVSSSISSSNLHWYQQKPGQSPRPWIYGTSNLASGVPDRFSGSGSGTSYTLTISRLEPEDFAVYYCQQWTSYPFTFGQGTKLEIK
binds | binds |  |  | 155B11C6-z7 (antibody, V domains shown, Humanized, human IgG1 constant region; also called 155B11C6 HU-VH1-2 / HU-VL1-2) VH: QVQLVQSGAEVKKPGASVKVSCKASGYTFTSYTMHWVRQAPGQGLEWIGYIDPKSDYNYYNQKFKDRATLTRDTSISTAYMELSRLRSDDTAVYYCARGFFKGYFDVWGQGTTVTVSS VL: EIVLTQSPGTLSLSPGERATLSCSVSSSISSSNLHWYQQKPGQAPRPWIYGTSNLASGVPDRFSGSGSGTDYTLTISRLEPEDFAVYYCQQWTSYPFTFGQGTKLEIK
 |  |  | binds | 29D2D7-z19p3-DXd (antibody, V domains shown, MC-GGFG-DXd (deruxtecan) conjugated to the antibody, DAR around 7.50-7.90; sites not given, also called 29D2D7-z19-MC-GGFG-DXd) VH: QVQLVQSGAEVKKPGASVKVSCKASGYTFTDYDMHWVKQAPGQGLEWIGGFDPESAGTVYNLRFKDKATLTADKSTSTAYMELRSLRSEDTAVYYCARKGYYSVSSPFTYWGQGTLVTVSS VL: not shown
